Source: the Human Domainome abundance scans (Beltran et al. 2025)
± gives the uncertainty stated by the source.

B1: Intersectin-1, residues 1156 to 1213; numbered along this chain, Q15811 (parent)
chain: AVCQVIGMYDYTAQNDDELAFNKGQIINVLNKEDPDWWKGEVNGQVGLFPSNYVKLTT

Variants of: B1
Assay: abundance fitness (aPCA) (normalised: wild type 0, dead -1); higher = more abundant; growth selection in yeast, the domain comes from the species named
Conditions: Homo sapiens
For AVCQVIGMYDYTAQNDDSLAFNKGQIINVLNKEDPDWWKGEVNGQVGLFPSNYVKLTT, the abundance fitness was -0.397 ± 0.11. AVCQVIGMYDYTAQNDDELAWNKGQIINVLNKEDPDWWKGEVNGQVGLFPSNYVKLTT gave an abundance fitness of -0.718 ± 0.12. AVCQVIGMYDYTAQNDDELARNKGQIINVLNKEDPDWWKGEVNGQVGLFPSNYVKLTT showed an abundance fitness of -0.686 ± 0.1. Variant AVCQVIGMYDYTAQNDDELAQNKGQIINVLNKEDPDWWKGEVNGQVGLFPSNYVKLTT has an abundance fitness of -1.13 ± 0.37. AVCQVIGMYDYTAQNDDELAVNKGQIINVLNKEDPDWWKGEVNGQVGLFPSNYVKLTT showed an abundance fitness of 0.013 ± 0.089. Work on AVCQVIGMYDYTAQNDDELAPNKGQIINVLNKEDPDWWKGEVNGQVGLFPSNYVKLTT yielded an abundance fitness of -1.06 ± 0.26. For AVCQVIGMYDYTAQNDDELAENKGQIINVLNKEDPDWWKGEVNGQVGLFPSNYVKLTT, the abundance fitness was -0.745 ± 0.18. Variant AVCQVIGMYDYTAQNDDELADNKGQIINVLNKEDPDWWKGEVNGQVGLFPSNYVKLTT has an abundance fitness of -0.656 ± 0.48. Variant AVCQVIGMYDYTAQNDDELAANKGQIINVLNKEDPDWWKGEVNGQVGLFPSNYVKLTT has an abundance fitness of -0.913 ± 0.17. In the case of AVCQVIGMYDYTAQNDDELAMNKGQIINVLNKEDPDWWKGEVNGQVGLFPSNYVKLTT, the abundance fitness is reported as -0.643 ± 0.18. For AVCQVIGMYDYTAQNDDELASNKGQIINVLNKEDPDWWKGEVNGQVGLFPSNYVKLTT, the abundance fitness was -0.927 ± 0.15. AVCQVIGMYDYTAQNDDELAGNKGQIINVLNKEDPDWWKGEVNGQVGLFPSNYVKLTT gave an abundance fitness of -0.772 ± 0.097. AVCQVIGMYDYTAQNDDELATNKGQIINVLNKEDPDWWKGEVNGQVGLFPSNYVKLTT showed an abundance fitness of -0.985 ± 0.2. AVCQVIGMYDYTAQNDDELAINKGQIINVLNKEDPDWWKGEVNGQVGLFPSNYVKLTT showed an abundance fitness of -0.266 ± 0.17. Variant AVCQVIGMYDYTAQNDDELAHNKGQIINVLNKEDPDWWKGEVNGQVGLFPSNYVKLTT has an abundance fitness of -0.724 ± 0.2. With AVCQVIGMYDYTAQNDDELAYNKGQIINVLNKEDPDWWKGEVNGQVGLFPSNYVKLTT the abundance fitness was -1.06 ± 0.28. With AVCQVIGMYDYTAQNDDELACNKGQIINVLNKEDPDWWKGEVNGQVGLFPSNYVKLTT the abundance fitness was -1.01 ± 0.2. With AVCQVIGMYDYTAQNDDELALNKGQIINVLNKEDPDWWKGEVNGQVGLFPSNYVKLTT the abundance fitness was -0.687 ± 0.11. AVCQVIGMYDYTAQNDDELAKNKGQIINVLNKEDPDWWKGEVNGQVGLFPSNYVKLTT showed an abundance fitness of -0.527 ± 0.17. For AVCQVIGMYDYTAQNDDELAFFKGQIINVLNKEDPDWWKGEVNGQVGLFPSNYVKLTT, the abundance fitness was -0.432 ± 0.13. In the case of AVCQVIGMYDYTAQNDDELAFLKGQIINVLNKEDPDWWKGEVNGQVGLFPSNYVKLTT, the abundance fitness is reported as -0.285 ± 0.12. In the case of AVCQVIGMYDYTAQNDDELAFDKGQIINVLNKEDPDWWKGEVNGQVGLFPSNYVKLTT, the abundance fitness is reported as 0.164 ± 0.15. Variant AVCQVIGMYDYTAQNDDELAFGKGQIINVLNKEDPDWWKGEVNGQVGLFPSNYVKLTT has an abundance fitness of -0.006 ± 0.074. AVCQVIGMYDYTAQNDDELAFIKGQIINVLNKEDPDWWKGEVNGQVGLFPSNYVKLTT showed an abundance fitness of -0.286 ± 0.18. With AVCQVIGMYDYTAQNDDELAFEKGQIINVLNKEDPDWWKGEVNGQVGLFPSNYVKLTT the abundance fitness was 0.174 ± 0.14. For AVCQVIGMYDYTAQNDDELAFKKGQIINVLNKEDPDWWKGEVNGQVGLFPSNYVKLTT, the abundance fitness was -0.027 ± 0.16. In the case of AVCQVIGMYDYTAQNDDELAFAKGQIINVLNKEDPDWWKGEVNGQVGLFPSNYVKLTT, the abundance fitness is reported as 0.157 ± 0.099. AVCQVIGMYDYTAQNDDELAFCKGQIINVLNKEDPDWWKGEVNGQVGLFPSNYVKLTT showed an abundance fitness of 0.128 ± 0.1. AVCQVIGMYDYTAQNDDELNFNKGQIINVLNKEDPDWWKGEVNGQVGLFPSNYVKLTT gave an abundance fitness of -0.484 ± 0.3. For AVCQVIGMYDYTAQNDDELRFNKGQIINVLNKEDPDWWKGEVNGQVGLFPSNYVKLTT, the abundance fitness was -0.292 ± 0.078. Work on AVCQVIGMYDYTAQNDDELGFNKGQIINVLNKEDPDWWKGEVNGQVGLFPSNYVKLTT yielded an abundance fitness of 0.1 ± 0.078. Work on AVCQVIGMYDYTAQNDDELQFNKGQIINVLNKEDPDWWKGEVNGQVGLFPSNYVKLTT yielded an abundance fitness of 0.092 ± 0.12. For AVCQVIGMYDYTAQNDDELLFNKGQIINVLNKEDPDWWKGEVNGQVGLFPSNYVKLTT, the abundance fitness was -0.796 ± 0.13. Work on AVCQVIGMYDYTAQNDDELHFNKGQIINVLNKEDPDWWKGEVNGQVGLFPSNYVKLTT yielded an abundance fitness of -0.268 ± 0.2. AVCQVIGMYDYTAQNDDELEFNKGQIINVLNKEDPDWWKGEVNGQVGLFPSNYVKLTT showed an abundance fitness of -0.149 ± 0.13. AVCQVIGMYDYTAQNDDELIFNKGQIINVLNKEDPDWWKGEVNGQVGLFPSNYVKLTT showed an abundance fitness of -0.793 ± 0.26. In the case of AVCQVIGMYDYTAQNDDELKFNKGQIINVLNKEDPDWWKGEVNGQVGLFPSNYVKLTT, the abundance fitness is reported as -0.236 ± 0.15. AVCQVIGMYDYTAQNDDELYFNKGQIINVLNKEDPDWWKGEVNGQVGLFPSNYVKLTT showed an abundance fitness of -0.662 ± 0.28. In the case of AVCQVIGMYDYTAQNDDELMFNKGQIINVLNKEDPDWWKGEVNGQVGLFPSNYVKLTT, the abundance fitness is reported as -0.545 ± 0.15. For AVCQVIGMYDYTAQNDDELDFNKGQIINVLNKEDPDWWKGEVNGQVGLFPSNYVKLTT, the abundance fitness was -0.286 ± 0.2. Work on AVCQVIGMYDYTAQNDDELWFNKGQIINVLNKEDPDWWKGEVNGQVGLFPSNYVKLTT yielded an abundance fitness of -0.415 ± 0.1. In the case of AVCQVIGMYDYTAQNDDELFFNKGQIINVLNKEDPDWWKGEVNGQVGLFPSNYVKLTT, the abundance fitness is reported as -0.673 ± 0.28. For AVCQVIGMYDYTAQNDDELCFNKGQIINVLNKEDPDWWKGEVNGQVGLFPSNYVKLTT, the abundance fitness was -0.152 ± 0.11. For AVCQVIGMYDYTAQNDDELPFNKGQIINVLNKEDPDWWKGEVNGQVGLFPSNYVKLTT, the abundance fitness was -0.123 ± 0.12. In the case of AVCQVIGMYDYTAQNDDELTFNKGQIINVLNKEDPDWWKGEVNGQVGLFPSNYVKLTT, the abundance fitness is reported as 0.127 ± 0.12. AVCQVIGMYDYTAQNDDELSFNKGQIINVLNKEDPDWWKGEVNGQVGLFPSNYVKLTT gave an abundance fitness of -0.079 ± 0.088.
